Sequences and labels used below:
T1: PapD Arg-8-Gly (E. coli, UniProt P15319 22-239)
T1 construct: also called R8G; pR8G
T1 sequence: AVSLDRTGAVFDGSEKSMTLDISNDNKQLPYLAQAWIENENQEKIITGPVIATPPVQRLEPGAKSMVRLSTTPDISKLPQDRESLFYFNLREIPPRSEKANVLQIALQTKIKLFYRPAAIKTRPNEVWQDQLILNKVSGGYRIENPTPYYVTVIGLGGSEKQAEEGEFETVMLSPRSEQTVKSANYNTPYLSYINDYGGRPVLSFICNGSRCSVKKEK

T2: PapD Arg-8-Ala (E. coli, UniProt P15319 22-239)
T2 construct: also called R8A; pR8A
T2 sequence: T1 sequence with G8A

T3: PapD Lys-112-Ala (E. coli, UniProt P15319 22-239)
T3 sequence: T1 sequence with G8R, K112A

B1: G1′-19′SV (peptide)
peptide: GKRKPVELSGSMTMVLSSP
notes: Variant of G1′-19′WT with Phe-2′ to Ser and Gly-14′ to Val
B2: PapD (wild type) (other)
chain: T1 sequence with G8R
notes: also called WT PapD; native PapD
B3: SEQ ID NO 22 (peptide)
peptide: QHHYYDLWQDHYKMPY
notes: also called one of the other three second-site peptides of PapG (region 120′ to 156′)
B4: SEQ ID NO 21 (peptide)
peptide: YKMPYDQIKQLPATNT
notes: as for B3
B5: SEQ ID NO 19 (peptide)
peptide: LPATNTLMLSFDNVGG
notes: as for B3
B6: E1′-19′WT (peptide)
peptide: QNLIAGPFSATATLVASYS
notes: Water insoluble peptide; also called PapE peptide
B7: G1′-19′WT (peptide)
peptide: GKRKPGELSGSMTMVLSFP
notes: Synthetic peptide; residues numbered from the C-terminus (Pro-1′); also called PapG 19-mer peptide; G-peptide
B8: G1′-8′WT (peptide)
peptide: MTMVLSFP
notes: also called PapG 8-mer peptide; octameric peptide

Assay [1] concerns the target B2. Kind of assay: soluble inhibition ELISA: 25-fold molar excess of peptide, 100 pmol/well PapD, G1′-19′WT-coated wells.
Source text: (§1) The wells were washed with PBS and blocked with 3% bovine serum albumin (BSA).
Assay [2] deals with B2. Kind of assay: soluble inhibition ELISA on G1′-19′WT-coated wells. Background: ELISA stands for enzyme-linked immunosorbent assay.
Source text: as §1
Assay [3] deals with T4, maltose binding protein (MBP) (UniProt P0AEX9 27-392 = MBP).
T4 construct: also called MBP control
Put plainly: co-expression, amylose affinity chromatography.

The target of assay [4] is T5, modified PapG peptide, Ser-9′ substituted by Cys, labelled with 5-IAF (E. coli).
T5 construct: also called labelled peptide; fluorescence labelled PapG analogue
Kind of assay: fluorescence intensity at 514 nm of the 5-IAF-labelled PapG peptide against increasing PapD concentration.
Source text: The environmentally sensitive fluorescent probe 5-IAF (5-iodoacetamidfluorescein) was then covalently coupled to the peptide via the sulfhydryl group on the Cys residue and the labelled peptide was purified; of course any other suitable envirorenmentally sensitive fluorescent probe may be employed.

Assay [5] deals with B2. Kind of assay: ELISA, peptide coated on wells, anti-PapD antiserum.
The target in assay [6] is B2. Kind of assay: ELISA, peptide coated on wells, PapD in solution, anti-PapD antiserum.
Procedure: (§2) 5 mg/ml stock solutions of peptides in water or 50% acetic acid were diluted to a concentration of 2.5 pmol/50 μl in PBS. 50 μl of the peptide solution was coated overnight onto microtiter wells (Nunc-Immuno Plate Maxisorp) at 4° C. The solutions in the plates were discarded, and the wells were blocked with 200 μl 3% bovine serum albumin (BSA, Sigma) in PBS (120 mM NaCl/2.7 mM KCl/10 mM phosphate buffer salts, pH 7.4) for 2 hours at 25° C. […] After 3 washes with PBS, the wells were incubated with a 1:1000 dilution of goat anti-rabbit IgG coupled to alkaline phosphatase (Sigma) in 3% BSA/PBS for 45 min. at 25° C. Following 3 washes with PBS and 3 washes with developing buffer (10 mM diethanolamine pH 9.5, 0.5 μM MgCl₂), 50 μl filtered p-nitrophenyl phosphate substrate (Sigma) in developing buffer (10 mg/ml) was added.
The target of assay [7] is B2. Put plainly: ELISA, peptide coated on wells, PapD in solution.
Procedure: as §2
Assay [8] concerns the target B2. Kind of assay: ELISA, peptide coated on wells, 200 pmol PapD, anti-PapD antiserum.
Procedure: For assaying the second site peptides, all the peptides were dissolved in dimethyl sulfoxide (DMSO, Sigma, St. Louis, Mo., USA) to a final concentration 2 mM. The stock solutions were diluted to a proper concentration in PBS and coated overnight on microtiter wells at 4° C. All the peptide solutions were adjusted to the same DMSO concentration. The subsequent steps followed the procedure described above.
For assay [9], the target named is B2. Kind of assay: ELISA, peptide coated on wells (2.5 pmol/50 µl), PapD in solution.
Procedure: as §2
Assay [10] has as its target T1, PapD Arg-8-Gly. Kind of assay: native polyacrylamide gel mobility shift.
In assay [11] the target is T2, PapD Arg-8-Ala. Kind of assay: native polyacrylamide gel mobility shift.
Assay [12] concerns the target T3, PapD Lys-112-Ala. Put plainly: native polyacrylamide gel mobility shift.
Assay [13] addresses B2. Kind of assay: inhibition ELISA: PapD preincubated with peptide, MBP-G1′-140′-coated wells.

Substitutions are numbered along the chain they refer to. Where no end group is shown, it is not given here.

Take GKRKPGELSGSMTMVLSFP-NH2 (also called G1′-19′NH2) [G1′-19′amide]: the % Inhibition (in general, the change of the read-out against control, counted positive when it falls) in [1] was determined as 56%.

Regarding TMVLSFP [G1′-7′WT], the “% Inhibition” value in assay [1] was 49%.

On to B1, for which the binding result in assay [2] was “binds”.

In the case of B2, the binding result in [3] was “no binding”. Besides, the Kd – broadly, a measure of binding affinity in units of concentration – in assay [4] came to 2500 nM.

As to B3, in [5], the binding result is reported as “no binding (tested: 200 pmol/50 ml of PapD)”.

As for B4, the binding result in assay [5] is given as “no binding (tested: 200 pmol/50 ml of PapD)”.

Consider B5, for which the binding result in assay [5] is recorded as “no binding (tested: 200 pmol/50 ml of PapD)”.

On to B6, for which, in assay [6], the binding result is on record as “binds”.

As for SGSMTMVLSFP (Water insoluble peptide) [G1′-11′WT], the binding result in assay [7] was “binds”.

Regarding GILNGGDFQTTASMAMIYN (also called PapF peptide) [F1′-19′WT], the binding result in assay [6] is listed as “binds”.

As to KSVVPGDYEATATFELTYR (also called PapK peptide; K-peptide) [K1′-19′WT], the binding result in assay [6] is “binds”.

In the case of DQIKQLPATNTLMLSF (also called site 2 peptide) [G125′-140′], the binding result in [8] is recorded as “binds”.

For KPGELSGSMTMVLSFP [G1′-16′WT], the binding result in assay [7] is reported as “binds”.

For KKLEAGNYFAVLGFRVDYE (also called PapH peptide) [H1′-19′WT], in assay [9], the binding result was “no binding”.

As for B7, the “% Inhibition” value in [1] was determined as 63%. Also, the binding result in assay [10], in assay [11] and in assay [12] was “no binding” each time.

Regarding MVLSFP [G1′-6′], in assay [13], the binding result is listed as “binds”.

For B8, in assay [13], the binding result is recorded as “binds”.
